From publication PMC3912051

Tests used:
[1] = biological target: ZNF10 KRAB-AB KRAB-AB (Homo sapiens) (UniProt P21506); details: cited from earlier work
[2] = biological target: TRIM28 (endogenous human TRIM28 protein) (human (endogenous in HeLa)) (UniProt Q13263)
Chain of TRIM28 (endogenous human TRIM28 protein) (human (endogenous in HeLa)) (Q13263 whole entry): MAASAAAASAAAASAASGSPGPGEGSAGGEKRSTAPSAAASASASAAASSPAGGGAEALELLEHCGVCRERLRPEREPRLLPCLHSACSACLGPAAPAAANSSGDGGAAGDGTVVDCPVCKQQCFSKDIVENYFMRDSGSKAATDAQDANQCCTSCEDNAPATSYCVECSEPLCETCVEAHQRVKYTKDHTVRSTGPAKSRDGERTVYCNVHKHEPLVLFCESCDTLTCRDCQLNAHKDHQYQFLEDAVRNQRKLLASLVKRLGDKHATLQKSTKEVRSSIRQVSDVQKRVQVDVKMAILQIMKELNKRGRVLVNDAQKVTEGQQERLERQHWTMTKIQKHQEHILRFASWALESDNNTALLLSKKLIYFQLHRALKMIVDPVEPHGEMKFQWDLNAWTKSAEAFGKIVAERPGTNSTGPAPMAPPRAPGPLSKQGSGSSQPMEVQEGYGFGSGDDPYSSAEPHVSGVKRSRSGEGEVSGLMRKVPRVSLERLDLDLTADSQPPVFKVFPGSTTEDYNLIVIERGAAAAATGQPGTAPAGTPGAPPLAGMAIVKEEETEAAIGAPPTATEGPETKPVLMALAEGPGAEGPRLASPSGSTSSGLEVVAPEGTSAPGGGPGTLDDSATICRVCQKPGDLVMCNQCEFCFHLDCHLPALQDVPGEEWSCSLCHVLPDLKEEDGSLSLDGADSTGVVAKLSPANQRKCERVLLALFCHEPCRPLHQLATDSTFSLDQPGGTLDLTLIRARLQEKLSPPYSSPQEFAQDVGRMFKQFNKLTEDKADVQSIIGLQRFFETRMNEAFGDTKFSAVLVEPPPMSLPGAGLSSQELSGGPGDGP

Chain of ZNF10 KRAB-AB KRAB-AB (Homo sapiens) (P21506 14-85): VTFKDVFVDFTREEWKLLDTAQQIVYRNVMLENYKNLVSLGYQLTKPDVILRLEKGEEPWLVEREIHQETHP
Chain of TRIM28 (Q13263 2-835): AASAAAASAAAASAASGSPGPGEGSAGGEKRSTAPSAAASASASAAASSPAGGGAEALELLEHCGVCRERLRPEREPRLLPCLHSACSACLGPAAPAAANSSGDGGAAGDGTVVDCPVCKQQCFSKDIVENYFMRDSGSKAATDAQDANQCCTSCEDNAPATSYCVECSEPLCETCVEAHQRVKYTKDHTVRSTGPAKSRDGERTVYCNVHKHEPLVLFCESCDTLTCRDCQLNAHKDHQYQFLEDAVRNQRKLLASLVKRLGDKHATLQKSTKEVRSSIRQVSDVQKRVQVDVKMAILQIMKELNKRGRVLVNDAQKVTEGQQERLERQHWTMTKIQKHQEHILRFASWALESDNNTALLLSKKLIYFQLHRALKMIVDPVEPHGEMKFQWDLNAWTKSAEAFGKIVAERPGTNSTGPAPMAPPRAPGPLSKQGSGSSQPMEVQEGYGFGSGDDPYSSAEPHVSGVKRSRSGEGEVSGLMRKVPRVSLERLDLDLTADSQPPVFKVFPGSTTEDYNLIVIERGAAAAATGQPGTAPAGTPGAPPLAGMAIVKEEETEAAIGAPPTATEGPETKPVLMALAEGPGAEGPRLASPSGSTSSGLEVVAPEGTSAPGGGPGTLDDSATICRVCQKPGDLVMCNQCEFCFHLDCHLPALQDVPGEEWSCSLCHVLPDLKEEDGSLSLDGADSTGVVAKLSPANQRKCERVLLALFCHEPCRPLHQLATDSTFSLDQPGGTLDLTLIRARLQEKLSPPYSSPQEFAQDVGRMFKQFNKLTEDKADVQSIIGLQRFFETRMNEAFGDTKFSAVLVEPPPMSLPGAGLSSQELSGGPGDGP

fold repression of a Gal4-site luciferase reporter by Gal4-XFIN-KRAB-AB in EPC fish cells with co-transfected human TRIM28 (negligible without it) [2] | Substance | Kd [1]
– | TRIM28 (from UniProt Q13263) | 142 nM
2 fold | GST-XFIN-KRAB-AB (corrected KRAB-AB domain of Xenopus laevis XFIN fused to glutathione S-transferase) (domain or fragment) | –
